Consider 18 molecules from patent US20170240628A1 (CELLMID, published 2017).

Test [1] concerns the target T1, recombinant human midkine (huMK) (human, UniProt P21741 21-143).
T1 construct: also called human MK; Human MK
T1 sequence (looked up): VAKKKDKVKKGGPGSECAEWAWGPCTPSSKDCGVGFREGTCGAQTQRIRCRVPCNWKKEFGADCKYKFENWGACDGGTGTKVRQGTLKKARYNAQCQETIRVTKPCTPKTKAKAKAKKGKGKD
In words: ELISA, plate coated with huMK. The protocol: (§1) The binding specificity and affinity of the humanised anti-MK antibodies to recombinant human MK (huMK) and murine MK (muMK) was assessed by ELISA. ELISA plates (Nunc Immuno MaxiSorp 96 well flat-bottom were coated with 100 uL of 2 ug/mL of either huMK or muMK in 2% BSA/PBS (overnight at room temperature). After washing, blocking (1 h at 37° C.), and washing again, the humanised anti-MK and chimeric antibodies described in Example 1 were analysed for binding to huMK or muMK at concentrations ranging between 3 μg/ml and 0.00004 μg/ml in 2% BSA/PBS (1 h at 37° C.). After washing, the binding of antibody was detected with goat anti-mouse IgG (Fab specific)-HRP conjugate (Sigma, Cat. No. A9917) and SigmaFast OPD substrate (Sigma, Cat. No. P9187). The reaction was stopped with 3 M HCl, absorbance read at 490 nm on a Dynex Technologies MRX TC II plate reader and the binding curves plotted. Binding affinity data for the humanised anti-MK antibodies to huMK and muMK are presented in Table 6 and Table 7 respectively, and in FIG. 3.

The target in test [2] is T2, recombinant murine midkine (muMK) (murine, UniProt P12025 23-140).
T2 construct: also called murine MK; Murine MK
T2 sequence (looked up): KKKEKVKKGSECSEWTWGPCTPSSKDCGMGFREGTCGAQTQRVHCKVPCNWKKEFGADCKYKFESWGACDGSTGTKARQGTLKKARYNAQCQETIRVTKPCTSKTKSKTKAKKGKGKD
The test can be described thus: ELISA, plate coated with muMK. The method, then:
as §1
In general terms: An ELISA detects its analyte on a solid surface through an enzyme-linked reagent.

B1: IP14 Hv0 Lv4 (antibody, V domains shown)
VH: QVQLQQPGAELVRPGHSVKLSCKASGQSFSSYWMNWVRQRPGQGLEWIGMIHPSDSETILNQKFKDKATLTVDISSNTAYMQLSSPTSEDSAVYFCSSWSAKRGDFWGQGTTLTVSS
VL: EIVLTQSPDFQSVTPKEKVNITCRASESISNNLHWYQQKPHQSPKLLIYYASQSISGVPSRFSGSGSGTDFNLTINSVEAEDAATYYCQQSNSWPLTFGGGTKLEIKR
In the case of B1, the EC50 in test [1] was found to be 0.108 nM.

B2: IP14 Hv0 Lv6 (antibody, V domains shown)
VH: QVQLQQPGAELVRPGHSVKLSCKASGQSFSSYWMNWVRQRPGQGLEWIGMIHPSDSETILNQKFKDKATLTVDISSNTAYMQLSSPTSEDSAVYFCSSWSAKRGDFWGQGTTLTVSS
VL: EIVLTQSPSTLSASVGDRVNITCRASESISNNLHWYQQKPHKAPKLLIYYASQSISGVPSRFSGSGSGTEFNLTISSVQPDDFATYYCQQSNSWPLTFGQGTKVEIKR
Regarding B2, in test [1], the EC50 came out at 0.132 nM.

B3: IP14-H5L2 (antibody, V domains shown)
VH: QVQLVQSGGGLVQPGGSLRLSCAASGQSFSSYWMNWVRQAPGQGLEWIGMIHPSDSETILNQKFKDKATLTVDISKNTAYLQMNSLRAEDTAVYYCSSWSAKRGDFWGQGTLVTVSS
VL: EIVLTQSPATLSLSPGERATLSCRASESISNNLHWYQQKPGQAPRLLIKYASQSISGIPARFSGSGPGTDFTLTISSVEPEDFAVYYCQQSNSWPLTFGGGTKLEIKR
notes: also called Hv5 Lv2
Consider B3, for which the EC50 was found to be 0.054 nM in test [2] and 0.069 nM in test [1].

B4: IP14-H2L2 (antibody, V domains shown)
VH: QVQLVQSGAEVKKPGASVKVSCKASGQSFSSYWMNWVRQAPGQGLEWIGMIHPSDSETILNQKFKDKATLTVDISTSTAYMELSSLRSEDTAVYYCSSWSAKRGDFWGQGTLVTVSS
VL: EIVLTQSPATLSLSPGERATLSCRASESISNNLHWYQQKPGQAPRLLIKYASQSISGIPARFSGSGPGTDFTLTISSVEPEDFAVYYCQQSNSWPLTFGGGTKLEIKR
notes: also called Hv2 Lv2
As to B4, the values for the half-maximal effective concentration (EC50) in test [2] and in test [1] were 0.087 nM and 0.1 nM, respectively.

B5: IP14 Hv0 Lv2 (antibody, V domains shown)
VH: QVQLQQPGAELVRPGHSVKLSCKASGQSFSSYWMNWVRQRPGQGLEWIGMIHPSDSETILNQKFKDKATLTVDISSNTAYMQLSSPTSEDSAVYFCSSWSAKRGDFWGQGTTLTVSS
VL: EIVLTQSPATLSLSPGERATLSCRASESISNNLHWYQQKPGQAPRLLIKYASQSISGIPARFSGSGPGTDFTLTISSVEPEDFAVYYCQQSNSWPLTFGGGTKLEIKR
As for B5, the EC50 in test [1] stood at 0.095 nM.

B6: IP14 Hv0 Lv3 (antibody, V domains shown)
VH: QVQLQQPGAELVRPGHSVKLSCKASGQSFSSYWMNWVRQRPGQGLEWIGMIHPSDSETILNQKFKDKATLTVDISSNTAYMQLSSPTSEDSAVYFCSSWSAKRGDFWGQGTTLTVSS
VL: DIVLTQSPATLSLSPGERATLSCRASESISNNLHWYQQKPGQAPRLLIYYASQSISGIPARFSGSGPGTDFTLTISSLEPEDFAVYYCQQSNSWPLTFGGGTKLEIKR
Take B6: the half-maximal effective concentration (EC50) in test [1] was determined as 0.09 nM.

B7: IP14 Hv0 Lv1 (antibody, V domains shown)
VH: QVQLQQPGAELVRPGHSVKLSCKASGQSFSSYWMNWVRQRPGQGLEWIGMIHPSDSETILNQKFKDKATLTVDISSNTAYMQLSSPTSEDSAVYFCSSWSAKRGDFWGQGTTLTVSS
VL: EIVLTQSPATLSLSPGERANLSCRASESISNNLHWYQQKPHQAPRLLIKYASQSISGIPARFSGSGPGTDFNLTISSVEPEDFAVYYCQQSNSWPLTFGGGTKLEIKR
As for B7, the EC50 in test [1] was 0.093 nM.

B8: IP14-H5L3 (antibody, V domains shown)
VH: QVQLVQSGGGLVQPGGSLRLSCAASGQSFSSYWMNWVRQAPGQGLEWIGMIHPSDSETILNQKFKDKATLTVDISKNTAYLQMNSLRAEDTAVYYCSSWSAKRGDFWGQGTLVTVSS
VL: DIVLTQSPATLSLSPGERATLSCRASESISNNLHWYQQKPGQAPRLLIYYASQSISGIPARFSGSGPGTDFTLTISSLEPEDFAVYYCQQSNSWPLTFGGGTKLEIKR
notes: also called hIP14-H5L3; Hv5 Lv3
For B8, the results for the concentration for a half-maximal effect (EC50) in test [2] and in test [1] were 0.05 nM and 0.068 nM, respectively.

B9: IP14-H6L1 (antibody, V domains shown)
VH: QVQLVQSGGGLVKPGHSLRLSCAASGQSFSSYWMNWVRQAPGKGLEWIGMIHPSDSETILNQKFKDKATLSVDIAKNSAYLQMNSLRAEDTAVYYCSSWSAKRGDFWGQGTLVTVSS
VL: EIVLTQSPATLSLSPGERANLSCRASESISNNLHWYQQKPHQAPRLLIKYASQSISGIPARFSGSGPGTDFNLTISSVEPEDFAVYYCQQSNSWPLTFGGGTKLEIKR
notes: also called Hv6 Lv1
As for B9, the EC50 in test [2] turned out to be 0.032 nM; in test [1], 0.097 nM.

B10: IP14-H1L1 (antibody, V domains shown)
VH: QVQLVQSGAEVKKPGHSVKVSCKASGQSFSSYWMNWVRQAPGQGLEWIGMIHPSDSETILNQKFKDKATLTVDISTSTAYMELSSPRSEDTAVYYCSSWSAKRGDFWGQGTLVTVSS
VL: EIVLTQSPATLSLSPGERANLSCRASESISNNLHWYQQKPHQAPRLLIKYASQSISGIPARFSGSGPGTDFNLTISSVEPEDFAVYYCQQSNSWPLTFGGGTKLEIKR
notes: also called Hv1 Lv1
As for B10, the results for the half-maximal effective concentration (EC50) in test [2] and in test [1] were 0.044 nM and 0.056 nM, respectively.

B11: IP14-H1L3 (antibody, V domains shown)
VH: QVQLVQSGAEVKKPGHSVKVSCKASGQSFSSYWMNWVRQAPGQGLEWIGMIHPSDSETILNQKFKDKATLTVDISTSTAYMELSSPRSEDTAVYYCSSWSAKRGDFWGQGTLVTVSS
VL: DIVLTQSPATLSLSPGERATLSCRASESISNNLHWYQQKPGQAPRLLIYYASQSISGIPARFSGSGPGTDFTLTISSLEPEDFAVYYCQQSNSWPLTFGGGTKLEIKR
notes: also called hIP14-H1L3; Hv1 Lv3
With B11, the EC50 in test [2] was determined as 0.089 nM; in test [1] it was 0.063 nM.

B12: IP14 Hv0 Lv8 (antibody, V domains shown)
VH: QVQLQQPGAELVRPGHSVKLSCKASGQSFSSYWMNWVRQRPGQGLEWIGMIHPSDSETILNQKFKDKATLTVDISSNTAYMQLSSPTSEDSAVYFCSSWSAKRGDFWGQGTTLTVSS
VL: DIVLTQSPATLSLSPGERATLSCRASESISNNLHWYQQKPHQAPRLLIYYASQSISGVPARFSGSGSGTDFTLTISSVEPEDFAVYYCQQSNSWPLTFGQGTKVEIKR
As for B12, the 50% effective concentration (EC50) in test [1] worked out at 0.08 nM.

B13: IP14-H1L2 (antibody, V domains shown)
VH: QVQLVQSGAEVKKPGHSVKVSCKASGQSFSSYWMNWVRQAPGQGLEWIGMIHPSDSETILNQKFKDKATLTVDISTSTAYMELSSPRSEDTAVYYCSSWSAKRGDFWGQGTLVTVSS
VL: EIVLTQSPATLSLSPGERATLSCRASESISNNLHWYQQKPGQAPRLLIKYASQSISGIPARFSGSGPGTDFTLTISSVEPEDFAVYYCQQSNSWPLTFGGGTKLEIKR
notes: also called Hv1 Lv2
Take B13: the concentration giving a half-maximal response (EC50) in test [2] came to 0.051 nM; in test [1], 0.065 nM.

B14: IP14-H6L2 (antibody, V domains shown)
VH: QVQLVQSGGGLVKPGHSLRLSCAASGQSFSSYWMNWVRQAPGKGLEWIGMIHPSDSETILNQKFKDKATLSVDIAKNSAYLQMNSLRAEDTAVYYCSSWSAKRGDFWGQGTLVTVSS
VL: EIVLTQSPATLSLSPGERATLSCRASESISNNLHWYQQKPGQAPRLLIKYASQSISGIPARFSGSGPGTDFTLTISSVEPEDFAVYYCQQSNSWPLTFGGGTKLEIKR
notes: also called hIP14-H6L2; Hv6 Lv2
In the case of B14, the EC50 is 0.072 nM in test [2] and 0.041 nM in test [1].

B15: IP14-H5L1 (antibody, V domains shown)
VH: QVQLVQSGGGLVQPGGSLRLSCAASGQSFSSYWMNWVRQAPGQGLEWIGMIHPSDSETILNQKFKDKATLTVDISKNTAYLQMNSLRAEDTAVYYCSSWSAKRGDFWGQGTLVTVSS
VL: EIVLTQSPATLSLSPGERANLSCRASESISNNLHWYQQKPHQAPRLLIKYASQSISGIPARFSGSGPGTDFNLTISSVEPEDFAVYYCQQSNSWPLTFGGGTKLEIKR
notes: also called Hv5 Lv1
Regarding B15, the EC50 in test [2] stood at 0.052 nM; in test [1], 0.062 nM.

B16: IP14 Hv0 Lv7 (antibody, V domains shown)
VH: QVQLQQPGAELVRPGHSVKLSCKASGQSFSSYWMNWVRQRPGQGLEWIGMIHPSDSETILNQKFKDKATLTVDISSNTAYMQLSSPTSEDSAVYFCSSWSAKRGDFWGQGTTLTVSS
VL: DIVLTQSPATLSLSPGERANLSCRASESISNNLHWYQQKPHQAPRLLIYYASQSISGVPARFSGSGSGTDFNLTISSVEPEDFAVYYCQQSNSWPLTFGQGTKVEIKR
Turning to B16, the half-maximal effective concentration (EC50) in test [1] came to 0.092 nM.

B17: IP14-H1L7 (antibody, V domains shown)
VH: QVQLVQSGAEVKKPGHSVKVSCKASGQSFSSYWMNWVRQAPGQGLEWIGMIHPSDSETILNQKFKDKATLTVDISTSTAYMELSSPRSEDTAVYYCSSWSAKRGDFWGQGTLVTVSS
VL: DIVLTQSPATLSLSPGERANLSCRASESISNNLHWYQQKPHQAPRLLIYYASQSISGVPARFSGSGSGTDFNLTISSVEPEDFAVYYCQQSNSWPLTFGQGTKVEIKR
notes: also called Hv1 Lv7
In the case of B17, the EC50 was found to be 0.081 nM in test [2] and 0.043 nM in test [1].

B18: IP14-H5L7 (antibody, V domains shown)
VH: QVQLVQSGGGLVQPGGSLRLSCAASGQSFSSYWMNWVRQAPGQGLEWIGMIHPSDSETILNQKFKDKATLTVDISKNTAYLQMNSLRAEDTAVYYCSSWSAKRGDFWGQGTLVTVSS
VL: DIVLTQSPATLSLSPGERANLSCRASESISNNLHWYQQKPHQAPRLLIYYASQSISGVPARFSGSGSGTDFNLTISSVEPEDFAVYYCQQSNSWPLTFGQGTKVEIKR
notes: also called Hv5 Lv7
With B18, the concentration giving a half-maximal response (EC50) in test [2] was 0.059 nM; in test [1], 0.067 nM.

As usually defined, the EC50 is the concentration needed to bring the measured effect to its halfway point.
